Experimental data reported in US20080241867A1.

Target: hybrid GFP construct containing the protease cleavage sequence SVPSGCG (SEQ ID NO:21) followed by histidine residues (Aequorea victoria (Water jellyfish) (Mesonema victoria)) [GFP: P42212]
Experiment: cell-based or functional assay

Micrograms of GFP Released by Protease (overnight, IMAC beads): 137 µg
Substance: Pancreatin
